1 molecule from publication PMC3656124, “DNA Topoisomerase II Is Involved in Regulation of Cyst Wall Protein Genes and Differentiation in Giardia lamblia” (PLoS Neglected Tropical Diseases, 2013) can be followed below.

One series addresses T1, Topo IIC (Giardia lamblia, UniProt E2RU90 489-1491).
T1 sequence: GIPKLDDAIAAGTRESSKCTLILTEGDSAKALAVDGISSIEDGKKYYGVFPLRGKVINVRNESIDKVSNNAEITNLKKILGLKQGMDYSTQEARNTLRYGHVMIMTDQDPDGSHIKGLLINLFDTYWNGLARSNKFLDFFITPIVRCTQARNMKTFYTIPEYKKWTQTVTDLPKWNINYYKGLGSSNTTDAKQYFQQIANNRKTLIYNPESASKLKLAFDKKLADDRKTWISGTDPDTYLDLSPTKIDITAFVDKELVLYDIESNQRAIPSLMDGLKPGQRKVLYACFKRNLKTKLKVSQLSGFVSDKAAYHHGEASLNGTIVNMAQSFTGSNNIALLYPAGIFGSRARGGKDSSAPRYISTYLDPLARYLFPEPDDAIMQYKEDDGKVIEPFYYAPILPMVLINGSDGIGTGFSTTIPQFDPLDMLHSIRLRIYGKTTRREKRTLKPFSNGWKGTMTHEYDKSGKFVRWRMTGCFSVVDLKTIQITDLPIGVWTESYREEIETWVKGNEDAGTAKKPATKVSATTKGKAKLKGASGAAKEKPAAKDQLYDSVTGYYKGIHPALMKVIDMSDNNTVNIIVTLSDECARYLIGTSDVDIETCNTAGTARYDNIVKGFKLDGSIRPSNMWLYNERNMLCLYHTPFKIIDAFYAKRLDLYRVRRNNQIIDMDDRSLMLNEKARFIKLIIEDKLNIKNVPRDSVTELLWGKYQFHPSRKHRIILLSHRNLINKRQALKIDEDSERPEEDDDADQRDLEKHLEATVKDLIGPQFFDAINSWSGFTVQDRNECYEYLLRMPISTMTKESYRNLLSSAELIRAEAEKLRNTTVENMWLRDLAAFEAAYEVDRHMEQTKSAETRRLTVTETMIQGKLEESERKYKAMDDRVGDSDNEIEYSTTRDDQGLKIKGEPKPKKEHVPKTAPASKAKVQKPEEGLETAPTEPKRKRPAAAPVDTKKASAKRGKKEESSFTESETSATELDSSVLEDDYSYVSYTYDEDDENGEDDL
Nature of the series: EMSA; EMSA: 0.02 pmol 5'-labeled probe, 5 ng protein, 20 ul, 0.5 ug poly(dI-dC), 15 min, room temperature, 6% acrylamide gel; buffer, salt and pH only by citation. To be noted: protein: recombinant; tags: C-terminal V5-His; chain copies: 2; label: 5'-32P. On the technique in general: Mobility shift assays separate free from complexed probe on a gel.

The next series addresses T2, Topo IIN (Giardia lamblia, UniProt E2RU90 1-488).
T2 sequence: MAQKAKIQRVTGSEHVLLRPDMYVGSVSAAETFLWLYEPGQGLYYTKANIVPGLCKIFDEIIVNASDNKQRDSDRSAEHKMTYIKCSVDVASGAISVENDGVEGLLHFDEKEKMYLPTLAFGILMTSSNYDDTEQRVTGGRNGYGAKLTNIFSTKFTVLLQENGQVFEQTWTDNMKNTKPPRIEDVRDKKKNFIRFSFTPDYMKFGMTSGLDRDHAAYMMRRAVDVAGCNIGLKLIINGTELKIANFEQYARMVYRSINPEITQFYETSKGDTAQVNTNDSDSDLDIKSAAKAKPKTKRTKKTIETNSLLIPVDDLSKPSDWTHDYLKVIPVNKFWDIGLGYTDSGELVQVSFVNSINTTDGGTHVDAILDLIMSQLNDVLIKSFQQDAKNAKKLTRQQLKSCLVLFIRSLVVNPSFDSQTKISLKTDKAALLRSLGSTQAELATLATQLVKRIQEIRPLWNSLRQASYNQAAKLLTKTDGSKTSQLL
The series is described as above. The note with it: protein: recombinant; tags: C-terminal V5-His; label: 5'-32P.

B1: IIBS (dsDNA)
DNA 1: ATGAAATCTAACAATGCGCTCATCGTCATCCTCGGC
DNA 2: GCCGAGGATGACGATGAGCGCATTGTTAGATTTCAT
For B1, the binding result with Topo IIC is “binds”; in the series with Topo IIN, “no binding”.
